The test has as its target Insulin-like growth factor 1 receptor (IGF1R) (UniProt P08069 31-1367, limits assumed). Briefly: cell-based or functional assay.

The star is where a group is joined. Palmitoyl = CCCCCCCCCCCCCCCC(=O)*

Chain of Insulin-like growth factor 1 receptor (IGF1R) (P08069 31-1367 limits assumed): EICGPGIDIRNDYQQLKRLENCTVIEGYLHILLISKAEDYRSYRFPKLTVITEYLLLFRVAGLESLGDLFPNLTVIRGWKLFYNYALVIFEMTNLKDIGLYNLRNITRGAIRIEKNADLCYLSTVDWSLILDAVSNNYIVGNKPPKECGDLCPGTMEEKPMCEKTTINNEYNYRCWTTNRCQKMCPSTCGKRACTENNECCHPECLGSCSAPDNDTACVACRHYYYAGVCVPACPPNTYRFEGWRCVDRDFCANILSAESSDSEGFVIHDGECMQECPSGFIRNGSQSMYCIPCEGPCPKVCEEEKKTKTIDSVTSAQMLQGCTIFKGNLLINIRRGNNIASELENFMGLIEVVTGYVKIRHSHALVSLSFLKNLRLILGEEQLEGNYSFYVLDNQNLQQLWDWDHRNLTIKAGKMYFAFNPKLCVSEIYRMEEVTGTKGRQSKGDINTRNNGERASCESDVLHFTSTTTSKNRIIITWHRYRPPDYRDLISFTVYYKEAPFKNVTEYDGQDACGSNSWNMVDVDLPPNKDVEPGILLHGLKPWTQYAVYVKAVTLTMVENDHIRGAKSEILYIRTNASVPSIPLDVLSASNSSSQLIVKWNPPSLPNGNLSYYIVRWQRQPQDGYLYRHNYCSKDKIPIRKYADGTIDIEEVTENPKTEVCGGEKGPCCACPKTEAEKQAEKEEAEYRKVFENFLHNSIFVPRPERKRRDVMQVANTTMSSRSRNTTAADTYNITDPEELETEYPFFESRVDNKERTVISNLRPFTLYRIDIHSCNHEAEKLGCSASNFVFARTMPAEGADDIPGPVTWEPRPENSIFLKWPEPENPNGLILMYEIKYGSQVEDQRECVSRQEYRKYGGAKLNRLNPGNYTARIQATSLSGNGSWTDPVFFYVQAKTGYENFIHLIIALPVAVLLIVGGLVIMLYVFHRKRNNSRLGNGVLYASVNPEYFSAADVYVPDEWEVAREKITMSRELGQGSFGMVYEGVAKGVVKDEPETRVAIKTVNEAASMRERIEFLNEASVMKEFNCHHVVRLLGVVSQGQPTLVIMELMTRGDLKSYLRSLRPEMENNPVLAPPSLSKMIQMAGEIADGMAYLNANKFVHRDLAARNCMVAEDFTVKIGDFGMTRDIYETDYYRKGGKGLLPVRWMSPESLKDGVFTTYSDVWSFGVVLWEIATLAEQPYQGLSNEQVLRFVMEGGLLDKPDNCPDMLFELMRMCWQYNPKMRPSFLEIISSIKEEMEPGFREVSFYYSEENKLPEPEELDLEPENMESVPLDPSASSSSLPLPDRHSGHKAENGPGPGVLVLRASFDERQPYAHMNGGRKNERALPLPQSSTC

B1: peptide 16 (Pal-RNNSRLGNGVLY-NH2) (peptide)
peptide: Palmitoyl-RNNSRLGNGVLY-NH2
SMILES: CCCCCCCCCCCCCCCC(=O)N[C@@H](CCCNC(=N)N)C(=O)N[C@@H](CC(N)=O)C(=O)N[C@@H](CC(N)=O)C(=O)N[C@@H](CO)C(=O)N[C@@H](CCCNC(=N)N)C(=O)N[C@@H](CC(C)C)C(=O)NCC(=O)N[C@@H](CC(N)=O)C(=O)NCC(=O)N[C@H](C(=O)N[C@@H](CC(C)C)C(=O)N[C@@H](Cc1ccc(O)cc1)C(N)=O)C(C)C
On to B1, for which the “GI50 (µM), MTT assay, MCF-7 cells” value was determined as 0.07 µM and the “TGI (µM), MTT assay, MCF-7 cells” value worked out at 0.5 µM.

B2: peptide 6 (Pal-VHRKRNNSRLGNGVLYASV-NH2) (peptide)
peptide: Palmitoyl-VHRKRNNSRLGNGVLYASV-NH2
SMILES: CCCCCCCCCCCCCCCC(=O)N[C@H](C(=O)N[C@@H](Cc1c[nH]cn1)C(=O)N[C@@H](CCCNC(=N)N)C(=O)N[C@@H](CCCCN)C(=O)N[C@@H](CCCNC(=N)N)C(=O)N[C@@H](CC(N)=O)C(=O)N[C@@H](CC(N)=O)C(=O)N[C@@H](CO)C(=O)N[C@@H](CCCNC(=N)N)C(=O)N[C@@H](CC(C)C)C(=O)NCC(=O)N[C@@H](CC(N)=O)C(=O)NCC(=O)N[C@H](C(=O)N[C@@H](CC(C)C)C(=O)N[C@@H](Cc1ccc(O)cc1)C(=O)N[C@@H](C)C(=O)N[C@@H](CO)C(=O)N[C@H](C(N)=O)C(C)C)C(C)C)C(C)C
With B2, the “GI50 (µM), MTT assay, MCF-7 cells” value amounted to 0.25 µM and the “TGI (µM), MTT assay, MCF-7 cells” value amounted to 1.05 µM.

B3: peptide 7 (Pal-HRKRNNSRLGNGVLYAS-NH2) (peptide)
peptide: Palmitoyl-HRKRNNSRLGNGVLYAS-NH2
SMILES: CCCCCCCCCCCCCCCC(=O)N[C@@H](Cc1c[nH]cn1)C(=O)N[C@@H](CCCNC(=N)N)C(=O)N[C@@H](CCCCN)C(=O)N[C@@H](CCCNC(=N)N)C(=O)N[C@@H](CC(N)=O)C(=O)N[C@@H](CC(N)=O)C(=O)N[C@@H](CO)C(=O)N[C@@H](CCCNC(=N)N)C(=O)N[C@@H](CC(C)C)C(=O)NCC(=O)N[C@@H](CC(N)=O)C(=O)NCC(=O)N[C@H](C(=O)N[C@@H](CC(C)C)C(=O)N[C@@H](Cc1ccc(O)cc1)C(=O)N[C@@H](C)C(=O)N[C@@H](CO)C(N)=O)C(C)C
For the molecule B3, the “GI50 (µM), MTT assay, MCF-7 cells” value is 1.45 µM and the “TGI (µM), MTT assay, MCF-7 cells” value came to 4.1 µM.

B4: peptide 9 (Pal-HRKRNNSRLGNGVLY-NH2) (peptide)
peptide: Palmitoyl-HRKRNNSRLGNGVLY-NH2
SMILES: CCCCCCCCCCCCCCCC(=O)N[C@@H](Cc1c[nH]cn1)C(=O)N[C@@H](CCCNC(=N)N)C(=O)N[C@@H](CCCCN)C(=O)N[C@@H](CCCNC(=N)N)C(=O)N[C@@H](CC(N)=O)C(=O)N[C@@H](CC(N)=O)C(=O)N[C@@H](CO)C(=O)N[C@@H](CCCNC(=N)N)C(=O)N[C@@H](CC(C)C)C(=O)NCC(=O)N[C@@H](CC(N)=O)C(=O)NCC(=O)N[C@H](C(=O)N[C@@H](CC(C)C)C(=O)N[C@@H](Cc1ccc(O)cc1)C(N)=O)C(C)C
With B4, the “GI50 (µM), MTT assay, MCF-7 cells” value stood at 1.65 µM and the “TGI (µM), MTT assay, MCF-7 cells” value was more than 5 µM.

B5: peptide 8 (Pal-HRKRNNSRLGNGVLYA-NH2) (peptide)
peptide: Palmitoyl-HRKRNNSRLGNGVLYA-NH2
SMILES: CCCCCCCCCCCCCCCC(=O)N[C@@H](Cc1c[nH]cn1)C(=O)N[C@@H](CCCNC(=N)N)C(=O)N[C@@H](CCCCN)C(=O)N[C@@H](CCCNC(=N)N)C(=O)N[C@@H](CC(N)=O)C(=O)N[C@@H](CC(N)=O)C(=O)N[C@@H](CO)C(=O)N[C@@H](CCCNC(=N)N)C(=O)N[C@@H](CC(C)C)C(=O)NCC(=O)N[C@@H](CC(N)=O)C(=O)NCC(=O)N[C@H](C(=O)N[C@@H](CC(C)C)C(=O)N[C@@H](Cc1ccc(O)cc1)C(=O)N[C@@H](C)C(N)=O)C(C)C
For B5, the “GI50 (µM), MTT assay, MCF-7 cells” value is 1.4 µM and the “TGI (µM), MTT assay, MCF-7 cells” value was more than 5 µM.

B6: peptide 13 (Pal-KRNNSRLGNGVLYASVN-NH2) (peptide)
peptide: Palmitoyl-KRNNSRLGNGVLYASVN-NH2
SMILES: CCCCCCCCCCCCCCCC(=O)N[C@@H](CCCCN)C(=O)N[C@@H](CCCNC(=N)N)C(=O)N[C@@H](CC(N)=O)C(=O)N[C@@H](CC(N)=O)C(=O)N[C@@H](CO)C(=O)N[C@@H](CCCNC(=N)N)C(=O)N[C@@H](CC(C)C)C(=O)NCC(=O)N[C@@H](CC(N)=O)C(=O)NCC(=O)N[C@H](C(=O)N[C@@H](CC(C)C)C(=O)N[C@@H](Cc1ccc(O)cc1)C(=O)N[C@@H](C)C(=O)N[C@@H](CO)C(=O)N[C@H](C(=O)N[C@@H](CC(N)=O)C(N)=O)C(C)C)C(C)C
On to B6, for which the “GI50 (µM), MTT assay, MCF-7 cells” value was 0.08 µM and the “TGI (µM), MTT assay, MCF-7 cells” value stood at 0.5 µM.

B7: peptide 24 (Pal-VFHRKRNNSRLGNGVLYASVN-NH2) (peptide)
peptide: Palmitoyl-VFHRKRNNSRLGNGVLYASVN-NH2
SMILES: CCCCCCCCCCCCCCCC(=O)N[C@H](C(=O)N[C@@H](Cc1ccccc1)C(=O)N[C@@H](Cc1c[nH]cn1)C(=O)N[C@@H](CCCNC(=N)N)C(=O)N[C@@H](CCCCN)C(=O)N[C@@H](CCCNC(=N)N)C(=O)N[C@@H](CC(N)=O)C(=O)N[C@@H](CC(N)=O)C(=O)N[C@@H](CO)C(=O)N[C@@H](CCCNC(=N)N)C(=O)N[C@@H](CC(C)C)C(=O)NCC(=O)N[C@@H](CC(N)=O)C(=O)NCC(=O)N[C@H](C(=O)N[C@@H](CC(C)C)C(=O)N[C@@H](Cc1ccc(O)cc1)C(=O)N[C@@H](C)C(=O)N[C@@H](CO)C(=O)N[C@H](C(=O)N[C@@H](CC(N)=O)C(N)=O)C(C)C)C(C)C)C(C)C
As to B7, the “GI50 (µM), MTT assay, MCF-7 cells” value came out at 0.1 µM and the “TGI (µM), MTT assay, MCF-7 cells” value came to 1.1 µM.

B8: peptide 11 (Pal-HRKRNNSRLGNGV-NH2) (peptide)
peptide: Palmitoyl-HRKRNNSRLGNGV-NH2
SMILES: CCCCCCCCCCCCCCCC(=O)N[C@@H](Cc1c[nH]cn1)C(=O)N[C@@H](CCCNC(=N)N)C(=O)N[C@@H](CCCCN)C(=O)N[C@@H](CCCNC(=N)N)C(=O)N[C@@H](CC(N)=O)C(=O)N[C@@H](CC(N)=O)C(=O)N[C@@H](CO)C(=O)N[C@@H](CCCNC(=N)N)C(=O)N[C@@H](CC(C)C)C(=O)NCC(=O)N[C@@H](CC(N)=O)C(=O)NCC(=O)N[C@H](C(N)=O)C(C)C
On to B8, for which the “GI50 (µM), MTT assay, MCF-7 cells” value stood at 2.5 µM and the “TGI (µM), MTT assay, MCF-7 cells” value is more than 5 µM.

B9: peptide 27 (Pal-KRNNSRLGNGVLY-NH2) (peptide)
peptide: Palmitoyl-KRNNSRLGNGVLY-NH2
SMILES: CCCCCCCCCCCCCCCC(=O)N[C@@H](CCCCN)C(=O)N[C@@H](CCCNC(=N)N)C(=O)N[C@@H](CC(N)=O)C(=O)N[C@@H](CC(N)=O)C(=O)N[C@@H](CO)C(=O)N[C@@H](CCCNC(=N)N)C(=O)N[C@@H](CC(C)C)C(=O)NCC(=O)N[C@@H](CC(N)=O)C(=O)NCC(=O)N[C@H](C(=O)N[C@@H](CC(C)C)C(=O)N[C@@H](Cc1ccc(O)cc1)C(N)=O)C(C)C
For the molecule B9, the “GI50 (µM), MTT assay, MCF-7 cells” value stood at 1.1 µM and the “TGI (µM), MTT assay, MCF-7 cells” value worked out at 2.5 µM.

B10: peptide 15 (Pal-NNSRLGNGVLY-NH2) (peptide)
peptide: Palmitoyl-NNSRLGNGVLY-NH2
SMILES: CCCCCCCCCCCCCCCC(=O)N[C@@H](CC(N)=O)C(=O)N[C@@H](CC(N)=O)C(=O)N[C@@H](CO)C(=O)N[C@@H](CCCNC(=N)N)C(=O)N[C@@H](CC(C)C)C(=O)NCC(=O)N[C@@H](CC(N)=O)C(=O)NCC(=O)N[C@H](C(=O)N[C@@H](CC(C)C)C(=O)N[C@@H](Cc1ccc(O)cc1)C(N)=O)C(C)C
As for B10, the “GI50 (µM), MTT assay, MCF-7 cells” value came out at 0.1 µM and the “TGI (µM), MTT assay, MCF-7 cells” value was 1.5 µM.

B11: peptide 10 (Pal-HRKRNNSRLGNGVL-NH2) (peptide)
peptide: Palmitoyl-HRKRNNSRLGNGVL-NH2
SMILES: CCCCCCCCCCCCCCCC(=O)N[C@@H](Cc1c[nH]cn1)C(=O)N[C@@H](CCCNC(=N)N)C(=O)N[C@@H](CCCCN)C(=O)N[C@@H](CCCNC(=N)N)C(=O)N[C@@H](CC(N)=O)C(=O)N[C@@H](CC(N)=O)C(=O)N[C@@H](CO)C(=O)N[C@@H](CCCNC(=N)N)C(=O)N[C@@H](CC(C)C)C(=O)NCC(=O)N[C@@H](CC(N)=O)C(=O)NCC(=O)N[C@H](C(=O)N[C@@H](CC(C)C)C(N)=O)C(C)C
On to B11, for which the “GI50 (µM), MTT assay, MCF-7 cells” value came out at 1.8 µM and the “TGI (µM), MTT assay, MCF-7 cells” value is more than 5 µM.

B12: peptide 14 (Pal-RNNSRLGNGVLYASVN-NH2) (peptide)
peptide: Palmitoyl-RNNSRLGNGVLYASVN-NH2
SMILES: CCCCCCCCCCCCCCCC(=O)N[C@@H](CCCNC(=N)N)C(=O)N[C@@H](CC(N)=O)C(=O)N[C@@H](CC(N)=O)C(=O)N[C@@H](CO)C(=O)N[C@@H](CCCNC(=N)N)C(=O)N[C@@H](CC(C)C)C(=O)NCC(=O)N[C@@H](CC(N)=O)C(=O)NCC(=O)N[C@H](C(=O)N[C@@H](CC(C)C)C(=O)N[C@@H](Cc1ccc(O)cc1)C(=O)N[C@@H](C)C(=O)N[C@@H](CO)C(=O)N[C@H](C(=O)N[C@@H](CC(N)=O)C(N)=O)C(C)C)C(C)C
With B12, the “GI50 (µM), MTT assay, MCF-7 cells” value turned out to be 0.1 µM and the “TGI (µM), MTT assay, MCF-7 cells” value came to 0.4 µM.

B13: peptide 2 (Pal-HRKRNNSRLG-NH2) (peptide)
peptide: Palmitoyl-HRKRNNSRLG-NH2
SMILES: CCCCCCCCCCCCCCCC(=O)N[C@@H](Cc1c[nH]cn1)C(=O)N[C@@H](CCCNC(=N)N)C(=O)N[C@@H](CCCCN)C(=O)N[C@@H](CCCNC(=N)N)C(=O)N[C@@H](CC(N)=O)C(=O)N[C@@H](CC(N)=O)C(=O)N[C@@H](CO)C(=O)N[C@@H](CCCNC(=N)N)C(=O)N[C@@H](CC(C)C)C(=O)NCC(N)=O
In the case of B13, the “GI50 (µM), MTT assay, MCF-7 cells” value turned out to be 1.3 µM and the “TGI (µM), MTT assay, MCF-7 cells” value is more than 5 µM.

B14: peptide 12 (Pal-RKRNNSRLGNGVLYASVN-NH2) (peptide)
peptide: Palmitoyl-RKRNNSRLGNGVLYASVN-NH2
SMILES: CCCCCCCCCCCCCCCC(=O)N[C@@H](CCCNC(=N)N)C(=O)N[C@@H](CCCCN)C(=O)N[C@@H](CCCNC(=N)N)C(=O)N[C@@H](CC(N)=O)C(=O)N[C@@H](CC(N)=O)C(=O)N[C@@H](CO)C(=O)N[C@@H](CCCNC(=N)N)C(=O)N[C@@H](CC(C)C)C(=O)NCC(=O)N[C@@H](CC(N)=O)C(=O)NCC(=O)N[C@H](C(=O)N[C@@H](CC(C)C)C(=O)N[C@@H](Cc1ccc(O)cc1)C(=O)N[C@@H](C)C(=O)N[C@@H](CO)C(=O)N[C@H](C(=O)N[C@@H](CC(N)=O)C(N)=O)C(C)C)C(C)C
Consider B14, for which the “GI50 (µM), MTT assay, MCF-7 cells” value came to 1.2 µM and the “TGI (µM), MTT assay, MCF-7 cells” value came out at 2.7 µM.

Source of the values: patent US20110195911A1, “SYNTHETIC ANALOGS OF THE JUXTAMEMBRANE DOMAIN OF IGF1R AND USES THEREOF” (THE UNITED STATES OF AMERICA,AS REPRESENTED BY THE …, priority 2008, published 2011).
